Test results as given in patent US20130116129, “METHOD FOR DETECTING TARGET MOLECULES” (NATIONAL INSTITUTE OF ADVANCED INDUSTRIAL SCIENCE AND …, published 2013).

Assays:
streptavidin [1] = target: T1, streptavidin (UniProt P22629 P22629:25-183); test: footprint; S1 nuclease protection; 50 mM NaCl, 20 mM MgCl2, Tris pH 7.5; ratio to control varies with streptavidin concentration; conditions: tags: Roche (free); Dynabeads streptavidin (Invitrogen) for bead selections; chain copies: 4
Method: (§1) Subsequently, 1 μl of S1 nuclease (22.5 units/μl) (Takara, Japan) was added to each tube followed by 20-minutes reaction at 37° C., and then the reaction was stopped by heating at 98° C. for 3 minutes.
(§2) PCR was performed, using a thermal circular (Biometra), after keeping the temperature at 96° C. for 1 minute, for 1 cycle of 95° C. for 15 seconds, 46° C. for 20 seconds, and 72° C. for 60 seconds, then 40 cycles each consisting of 95° C. for 15 seconds and 72° C. for 60 seconds. As a PCR reagent, KOD-Neo-plus (Toyobo Co., Ltd., Japan) was used.
(§3) After PCR, products were digested with the Msp I restriction enzyme. […] Samples after digestion were subjected to gel electrophoresis, so that the ratio of the amount of the streptavidin aptamer to the amount of the control aptamer could be determined.

streptavidin [2] = target: T1, streptavidin; test: footprint; stated non-binding control in S1 nuclease protection assay; conditions: tags: Roche (free); Dynabeads streptavidin (Invitrogen) for bead selections; chain copies: 4
Method: as §1, §2, §3

T1 sequence (P22629 25-183, one chain of several): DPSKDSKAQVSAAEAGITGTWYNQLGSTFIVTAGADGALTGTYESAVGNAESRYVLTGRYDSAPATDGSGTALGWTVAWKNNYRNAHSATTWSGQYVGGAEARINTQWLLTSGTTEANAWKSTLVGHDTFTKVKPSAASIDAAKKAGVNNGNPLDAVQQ

TCTGTGAGACGACGCACCGGTCGCAGGTTTTGTCTCACAG (ssDNA) [streptavidin aptamer]: binds (streptavidin [1]).

TCTGTGAGACGACGCACCGACCGCAGGTTTTGTCTCACAG (ssDNA) [control aptamer]: no binding (streptavidin [2]).
